Measured values reported in PMC5887453 (Nucleic Acids Research, 2018).

Molecular target: T1, Pyrococcus horikoshii elongation factor 2 (PhoEF-2), wild type (Pyrococcus horikoshii, UniProt O59521 1-732)
T1 sequence (looked up): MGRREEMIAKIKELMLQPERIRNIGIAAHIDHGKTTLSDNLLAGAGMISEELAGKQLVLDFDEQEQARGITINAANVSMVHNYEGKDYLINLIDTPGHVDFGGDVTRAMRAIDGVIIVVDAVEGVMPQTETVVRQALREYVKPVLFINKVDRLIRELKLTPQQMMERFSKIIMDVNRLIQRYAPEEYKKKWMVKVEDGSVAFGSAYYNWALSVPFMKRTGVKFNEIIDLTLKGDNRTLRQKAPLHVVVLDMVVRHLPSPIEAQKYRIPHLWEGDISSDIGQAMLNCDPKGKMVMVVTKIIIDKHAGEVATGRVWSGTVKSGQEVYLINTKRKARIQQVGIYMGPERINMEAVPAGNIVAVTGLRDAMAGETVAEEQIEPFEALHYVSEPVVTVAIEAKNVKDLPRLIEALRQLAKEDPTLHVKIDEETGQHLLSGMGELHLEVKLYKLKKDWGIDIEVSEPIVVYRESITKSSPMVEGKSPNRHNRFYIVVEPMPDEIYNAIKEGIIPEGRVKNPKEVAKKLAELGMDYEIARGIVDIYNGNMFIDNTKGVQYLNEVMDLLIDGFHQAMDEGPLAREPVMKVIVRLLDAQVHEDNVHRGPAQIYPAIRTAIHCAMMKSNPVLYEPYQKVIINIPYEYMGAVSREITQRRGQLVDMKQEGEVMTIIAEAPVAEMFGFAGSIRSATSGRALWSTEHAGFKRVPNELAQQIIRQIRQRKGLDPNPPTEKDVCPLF
Test: crystal structure

binding result: binds
Binder: EALAGLSALFG [P1C11, peptide of the 11 C-terminal amino acids of P. horikoshii P1 (E98-G108)]
